# Test results published in publication PMC6294903 (Proceedings of the National Academy of Sciences of the …, 2018).
# T1: DnaJ C268A (Salmonella enterica serovar Typhimurium, UniProt P0A1G7 1-379, C268A)
# T1 sequence (looked up): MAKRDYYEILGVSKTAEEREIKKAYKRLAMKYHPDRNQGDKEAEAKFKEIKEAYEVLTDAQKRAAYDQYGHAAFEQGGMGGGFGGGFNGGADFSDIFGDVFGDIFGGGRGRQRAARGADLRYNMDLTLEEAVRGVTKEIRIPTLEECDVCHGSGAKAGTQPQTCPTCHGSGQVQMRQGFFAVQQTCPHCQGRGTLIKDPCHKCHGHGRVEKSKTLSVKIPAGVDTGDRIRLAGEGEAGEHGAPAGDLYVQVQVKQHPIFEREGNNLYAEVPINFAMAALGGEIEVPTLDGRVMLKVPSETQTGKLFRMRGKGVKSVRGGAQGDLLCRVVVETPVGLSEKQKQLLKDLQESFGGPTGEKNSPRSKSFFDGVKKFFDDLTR
# B1: GST-DksA (wild type, pull-down done in the absence of DTT) (natural protein, Salmonella enterica serovar Typhimurium, UniProt P0A1G5 1-151, looked up)
# chain: MQEGQNRKTSSLSILAIAGVEPYQEKPGEEYMNEAQLSHFKRILEAWRNQLRDEVDRTVTHMQDEAANFPDPVDRAAQEEEFSLELRNRDRERKLIKKIEKTLKKVEDEDFGYCESCGVEIGIRRLEARPTADLCIDCKTLAEIREKQMAG
# Legend:
# [1] = target: DnaJ-6His (Salmonella enterica serovar Typhimurium) (UniProt P0A1G7); assay: MST
# [2] = target: T1, DnaJ C268A; assay: pull-down
Molecule,Kd [1] [nM],binding result [2]
"oxidized DksA (recombinant, GST removed) (from UniProt P0A1G5 1-151) (natural protein)",65,–
B1,–,binds
